Biological target: T7-RelA, Q04206
Sequence (Q04206 whole entry): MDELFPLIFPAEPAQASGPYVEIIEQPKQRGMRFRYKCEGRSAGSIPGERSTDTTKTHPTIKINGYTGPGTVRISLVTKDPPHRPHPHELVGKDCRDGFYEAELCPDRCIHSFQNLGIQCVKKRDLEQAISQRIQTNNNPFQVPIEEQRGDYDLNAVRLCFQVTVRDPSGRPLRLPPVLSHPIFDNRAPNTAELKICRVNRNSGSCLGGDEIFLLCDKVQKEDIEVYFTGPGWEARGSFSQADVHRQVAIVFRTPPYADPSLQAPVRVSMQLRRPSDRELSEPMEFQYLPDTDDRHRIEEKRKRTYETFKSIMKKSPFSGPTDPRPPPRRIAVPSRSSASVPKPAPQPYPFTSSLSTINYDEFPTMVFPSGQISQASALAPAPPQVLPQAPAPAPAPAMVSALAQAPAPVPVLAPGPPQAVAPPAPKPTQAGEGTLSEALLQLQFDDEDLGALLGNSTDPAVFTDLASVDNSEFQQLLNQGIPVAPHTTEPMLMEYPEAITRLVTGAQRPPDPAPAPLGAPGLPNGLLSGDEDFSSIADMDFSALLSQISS

B1: P/CAF (protein)
chain: MSEAGGAGPGGCGAGAGAGAGPGALPPQPAALPPAPPQGSPCAAAAGGSGACGPATAVAAAGTAEGPGGGGSARIAVKKAQLRSAPRAKKLEKLGVYSACKAEESCKCNGWKNPNPSPTPPRADLQQIIVSLTESCRSCSHALAAHVSHLENVSEEEMNRLLGIVLDVEYLFTCVHKEEDADTKQVYFYLFKLLRKSILQRGKPVVEGSLEKKPPFEKPSIEQGVNNFVQYKFSHLPAKERQTIVELAKMFLNRINYWHLEAPSQRRLRSPNDDISGYKENYTRWLCYCNVPQFCDSLPRYETTQVFGRTLLRSVFTVMRRQLLEQARQEKDKLPLEKRTLILTHFPKFLSMLEEEVYSQNSPIWDQDFLSASSRTSQLGIQTVINPPPVAGTISYNSTSSSLEQPNAGSSSPACKASSGLEANPGEKRKMTDSHVLEEAKKPRVMGDIPMELINEVMSTITDPAAMLGPETNFLSAHSARDEAARLEERRGVIEFHVVGNSLNQKPNKKILMWLVGLQNVFSHQLPRMPKEYITRLVFDPKHKTLALIKDGRVIGGICFRMFPSQGFTEIVFCAVTSNEQVKGYGTHLMNHLKEYHIKHDILNFLTYADEYAIGYFKKQGFSKEIKIPKTKYVGYIKDYEGATLMGCELNPRIPYTEFSVIIKKQKEIIKKLIERKQAQIRKVYPGLSCFKDGVRQIPIESIPGIRETGWKPSGKEKSKEPRDPDQLYSTLKSILQQVKSHQSAWPFMEPVKRTEAPGYYEVIRFPMDLKTMSERLKNRYYVSKKLFMADLQRVFTNCKEYNPPESEYYKCANILEKFFFSKIKEAGLIDK
acetylation of T7-RelA (anti-T7 immunoprecipitation, anti-acetylated lysine blot): P/CAF failed to mediate this response
